Experimental data from patent US20120053225.

How the values were obtained:
[1] = target: HA-tagged AKT (wild type), P31749
[2] = target: HA-tagged AKT deletion construct lacking the PH domain, P31749
[3] = target: HA-tagged AKT Y176F mutant, P31749

B1: purified tagged Ack1 expressed in HEK293T cells (protein)
chain: MQPEEGTGWLLELLSEVQLQQYFLRLRDDLNVTRLSHFEYVKNEDLEKIGMGRPGQRRLWEAVKRRKALCKRKSWMSKVFSGKRLEAEFPPHHSQSTFRKTSPAPGGPAGEGPLQSLTCLIGEKDLRLLEKLGDGSFGVVRRGEWDAPSGKTVSVAVKCLKPDVLSQPEAMDDFIREVNAMHSLDHRNLIRLYGVVLTPPMKMVTELAPLGSLLDRLRKHQGHFLLGTLSRYAVQVAEGMGYLESKRFIHRDLAARNLLLATRDLVKIGDFGLMRALPQNDDHYVMQEHRKVPFAWCAPESLKTRTFSHASDTWMFGVTLWEMFTYGQEPWIGLNGSQILHKIDKEGERLPRPEDCPQDIYNVMVQCWAHKPEDRPTFVALRDFLLEAQPTDMRALQDFEEPDKLHIQMNDVITVIEGRAENYWWRGQNTRTLCVGPFPRNVVTSVAGLSAQDISQPLQNSFIHTGHGDSDPRHCWGFPDRIDELYLGNPMDPPDLLSVELSTSRPPQHLGGVKKPTYDPVSEDQDPLSSDFKRLGLRKPGLPRGLWLAKPSARVPGTKASRGSGAEVTLIDFGEEPVVPALRPCAPSLAQLAMDACSLLDETPPQSPTRALPRPLHPTPVVDWDARPLPPPPAYDDVAQDEDDFEICSINSTLVGAGVPAGPSQGQTNYAFVPEQARPPPPLEDNLFLPPQGGGKPPSSAQTAEIFQALQQECMRQLQAPAGSPAPSPSPGGDDKPQVPPRVPIPPRPTRPHVQLSPAPPGEEETSQWPGPASPPRVPPREPLSPQGSRTPSPLVPPGSSPLPPRLSSSPGKTMPTTQSFASDPKYATPQVIQAPGPRAGPCILPIVRDGKKVSSTHYYLLPERPSYLERYQRFLREAQSPEEPTPLPVPLLLPPPSTPAPAAPTATVRPMPQAALDPKANFSTNNSNPGARPPPPRATARLPQRGCPGDGPEAGRPADKIQMAMVHGVTTEECQAALQCHGWSVQRAAQYLKVEQLFGLGLRPRGECHKVLEMFDWNLEQAGCHLLGSWGPAHHKR
In the case of B1, the “AKT Tyr176-phosphorylation (in vitro phosphorylation of purified AKT by Ack1, immunoblot)” value [1] is reported as “purified Ack1 interacted directly with AKT resulting in AKT Tyr176-phosphorylation”.

B2: activated Ack1 (caAck, L487F mutant) (protein)
chain: MQPEEGTGWLLELLSEVQLQQYFLRLRDDLNVTRLSHFEYVKNEDLEKIGMGRPGQRRLWEAVKRRKALCKRKSWMSKVFSGKRLEAEFPPHHSQSTFRKTSPAPGGPAGEGPLQSLTCLIGEKDLRLLEKLGDGSFGVVRRGEWDAPSGKTVSVAVKCLKPDVLSQPEAMDDFIREVNAMHSLDHRNLIRLYGVVLTPPMKMVTELAPLGSLLDRLRKHQGHFLLGTLSRYAVQVAEGMGYLESKRFIHRDLAARNLLLATRDLVKIGDFGLMRALPQNDDHYVMQEHRKVPFAWCAPESLKTRTFSHASDTWMFGVTLWEMFTYGQEPWIGLNGSQILHKIDKEGERLPRPEDCPQDIYNVMVQCWAHKPEDRPTFVALRDFLLEAQPTDMRALQDFEEPDKLHIQMNDVITVIEGRAENYWWRGQNTRTLCVGPFPRNVVTSVAGLSAQDISQPLQNSFIHTGHGDSDPRHCWGFPDRIDELYFGNPMDPPDLLSVELSTSRPPQHLGGVKKPTYDPVSEDQDPLSSDFKRLGLRKPGLPRGLWLAKPSARVPGTKASRGSGAEVTLIDFGEEPVVPALRPCAPSLAQLAMDACSLLDETPPQSPTRALPRPLHPTPVVDWDARPLPPPPAYDDVAQDEDDFEICSINSTLVGAGVPAGPSQGQTNYAFVPEQARPPPPLEDNLFLPPQGGGKPPSSAQTAEIFQALQQECMRQLQAPAGSPAPSPSPGGDDKPQVPPRVPIPPRPTRPHVQLSPAPPGEEETSQWPGPASPPRVPPREPLSPQ
For B2, the “Tyr-phosphorylation of AKT deletion constructs (IP with HA antibodies, immunoblot with pTyr antibodies)” value [2] was “AKT deletion construct lacking the PH domain (ΔPH-AKT) exhibited significant decrease in Tyr-phosphorylation”.

B3: endogenous Ack1 of mouse embryo fibroblasts (protein)
chain: MQPEEGTGWLLELLSEVQLQQYFLRLRDDLNITRLSHFEYVKNEDLEKIGMGRPGQRRLWEAVKRRKAMCKRKSWMSKVFSGKRLEAEFPSQHSQSTFRKPSPTPGSLPGEGTLQSLTCLIGEKDLRLLEKLGDGSFGVVRRGEWDAPAGKTVSVAVKCLKPDVLSQPEAMDDFIREVNAMHSLDHRNLIRLYGVVLTLPMKMVTELAPLGSLLDRLRKHQGHFLLGTLSRYAVQVAEGMAYLESKRFIHRDLAARNLLLATRDLVKIGDFGLMRALPQNDDHYVMQEHRKVPFAWCAPESLKTRTFSHASDTWMFGVTLWEMFTYGQEPWIGLNGSQILHKIDKEGERLPRPEDCPQDIYNVMVQCWAHKPEDRPTFVALRDFLLEAQPTDMRALQDFEEPDKLHIQMNDVITVIEGRAENYWWRGQNTRTLCVGPFPRNVVTSVAGLSAQDISQPLQNSFIHTGHGDSDPRHCWGFPDRIDELYLGNPMDPPDLLSVELSTSRPTQHLGRVKREPPPRPPQPAIFTQKTTYDPVSEDPDPLSSDFKRLGLRKPALPRGLWLAKPSARVPGTKADRSSGGEVTLIDFGEEPVVPTPRPCAPSLAQLAMDACSLLDKTPPQSPTRALPRPLHPTPVVDWDARPLPPPPAYDDVAQDEDDFEVCSINSTLVGAGLPAGPSQGETNYAFVPEQAQMPPALEDNLFLPPQGGGKPPSSVQTAEIFQALQQECMRQLQVPTGQLTPSPTPGGDDKPQVPPRVPIPPRPTRPRVELSPAPSGEEETSRWPGPASPPRVPPREPLSPQGSRTPSPLVPPGSSPLPHRLSSSPGKTMPTTQSFASDPKYATPQVIQAPGPRAGPCILPIVRDGRKVSSTHYYLLPERPPYLERYQRFLREAQSPEEPAALPVPPLLPPPSTPAPAAPTATVRPMPQAAPDPKANFSTNNSNPGARPPSLRAAARLPQRGCPGDGQEAARPADKVQMLQAMVHGVTTEECQAALQSHSWSVQRAAQYLKVEQLFGLGLRPRVECHKVLEMFDWNLEQAGCHLLGSCGPAHHKR
For B3, the “AKT Tyr/Ser-phosphorylations (IP and immunoblot)” value [3] was “decreased AKT Tyr/Ser-phosphorylations”.
